Our source for the stoichiometry N values is PMC3382604.

The target of assay [1] is Dihydrodipicolinate synthase from Bacillus anthracis (Bacillus anthracis). The assay is described as follows: AUC.
Assay [2] has the same target. The assay is described as follows: SAXS.
For assay [3], the target named is Dihydrodipicolinate synthase from Vitis vinifera (Vitis vinifera). The assay is described as follows: SAXS.
Assay [4] shares this target. The assay is described as follows: crystal structure; Vv-DHDPS in complex with pyruvate, 2.2 Å, space group P1, eight monomers (two tetramers) in the asymmetric unit.
Assay [5] has the same target. The assay is described as follows: AUC; sedimentation velocity, 13 µM initial protein, 40,000 rpm, 30°C, absorbance at 280 nm, 2DSA Monte Carlo analysis; without and with saturating (5 mM) pyruvate.

Turning to “Dihydrodipicolinate synthase from Bacillus anthracis (enzyme)”, the stoichiometry N in assay [1] and in assay [2] was 4 each time.
On to “Dihydrodipicolinate synthase from Vitis vinifera (enzyme)”, for which the stoichiometry N in assay [3], in assay [4] and in assay [5] was 4 throughout.
